In PMC9482650, “Quantitative fragmentomics allow affinity mapping of interactomes” (Nature Communications, 2022) one finds pKd data, which are given here for four molecules.

Targets include DLG1_2, Q12959; DLG4_2, P78352; FRMPD3, Q5JV73; GRASP, Q7Z6J2; GRIP2_7, Q9C0E4; LDB3, O75112; MAGI2_2, Q86UL8; PARD3_3, Q8TEW0; PDLIM1, O00151; SCRIB_1, Q14160.
Common to all, as to assay: holdup assay
Holding throughout (design): key: below the threshold = too weak to quantify, mostly under pKd 3.1 to 4
What all share (details): plain residues with an end cap or a label only (N-terminal biotin on a linker: ado-ado)

The target of the next test is T1, APBA1_1, Q02410.
T1 sequence (Q02410 651-752, limits assumed, looked up): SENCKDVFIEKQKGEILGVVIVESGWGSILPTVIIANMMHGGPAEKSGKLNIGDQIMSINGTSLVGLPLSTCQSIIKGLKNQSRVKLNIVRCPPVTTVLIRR

In a further test the target is T2, CARD11, Q9BXL7.
T2 sequence (Q9BXL7 662-765, limits assumed, looked up): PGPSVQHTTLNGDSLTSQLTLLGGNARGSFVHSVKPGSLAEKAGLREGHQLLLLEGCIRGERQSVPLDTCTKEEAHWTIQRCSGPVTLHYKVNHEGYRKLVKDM

A further test addresses T3, DFNB31_1, Q9P202.
T3 sequence (Q9P202 135-233, limits assumed, looked up): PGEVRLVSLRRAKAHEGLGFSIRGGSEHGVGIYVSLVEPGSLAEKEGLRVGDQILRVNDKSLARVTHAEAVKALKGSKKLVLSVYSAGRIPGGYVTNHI

In the next test the target is T4, DFNB31_2, Q9P202.
T4 sequence (Q9P202 274-371, limits assumed, looked up): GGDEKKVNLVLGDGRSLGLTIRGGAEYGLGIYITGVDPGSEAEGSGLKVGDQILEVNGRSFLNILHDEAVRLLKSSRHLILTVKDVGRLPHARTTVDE

Another test concerns the target T5, DFNB31_3, Q9P202.
T5 sequence (Q9P202 811-907, limits assumed, looked up): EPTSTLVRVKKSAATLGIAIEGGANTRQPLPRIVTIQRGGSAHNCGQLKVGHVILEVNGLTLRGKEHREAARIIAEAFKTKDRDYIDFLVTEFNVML

Another test deals with T6, DVL3, Q92997.
T6 sequence (Q92997 244-331, limits assumed, looked up): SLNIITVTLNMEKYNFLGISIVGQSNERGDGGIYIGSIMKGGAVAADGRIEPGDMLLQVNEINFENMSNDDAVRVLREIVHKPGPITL

For the next test, the target named is T7, GRIP1_4, Q9Y3R0.
T7 sequence (Q9Y3R0 467-571, limits assumed, looked up): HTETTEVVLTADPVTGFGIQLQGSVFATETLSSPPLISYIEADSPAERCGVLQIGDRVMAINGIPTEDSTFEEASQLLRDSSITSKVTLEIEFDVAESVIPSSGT

In the next test the target is T8, HTRA3, P83110.
T8 sequence (P83110 354-453, limits assumed, looked up): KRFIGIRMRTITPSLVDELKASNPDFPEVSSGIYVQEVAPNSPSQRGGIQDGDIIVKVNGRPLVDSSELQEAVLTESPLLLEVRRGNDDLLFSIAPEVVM

Another test concerns the target T9, LIN7A, O14910.
T9 sequence (O14910 103-200, limits assumed, looked up): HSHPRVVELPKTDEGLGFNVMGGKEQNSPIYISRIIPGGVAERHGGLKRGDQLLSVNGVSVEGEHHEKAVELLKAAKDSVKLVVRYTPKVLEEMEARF

The target of a further test is T10, LIN7B, Q9HAP6.
T10 sequence (Q9HAP6 88-185, limits assumed, looked up): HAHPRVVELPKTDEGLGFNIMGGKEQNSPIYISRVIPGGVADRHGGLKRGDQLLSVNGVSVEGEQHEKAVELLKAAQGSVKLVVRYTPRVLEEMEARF

Another test addresses T11, PDZD7_3, Q9H5P4.
T11 sequence (Q9H5P4 857-944, limits assumed, looked up): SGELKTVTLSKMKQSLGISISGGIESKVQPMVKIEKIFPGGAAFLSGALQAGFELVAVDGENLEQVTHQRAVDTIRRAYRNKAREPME

For the next test, the target named is T12, PTPN13_1, Q12923.
T12 sequence (Q12923 1088-1188, limits assumed, looked up): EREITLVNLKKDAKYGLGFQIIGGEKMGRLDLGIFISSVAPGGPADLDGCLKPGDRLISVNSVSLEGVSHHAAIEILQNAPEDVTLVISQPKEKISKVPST

Another test concerns the target T13, SNTA1, Q13424.
T13 sequence (Q13424 82-180, limits assumed, looked up): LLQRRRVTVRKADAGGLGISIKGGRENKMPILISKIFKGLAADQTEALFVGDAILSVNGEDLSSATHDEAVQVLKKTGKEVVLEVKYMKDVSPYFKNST

In a further test the target is T14, TIAM2, Q8IVF5.
T14 sequence (Q8IVF5 885-986, limits assumed, looked up): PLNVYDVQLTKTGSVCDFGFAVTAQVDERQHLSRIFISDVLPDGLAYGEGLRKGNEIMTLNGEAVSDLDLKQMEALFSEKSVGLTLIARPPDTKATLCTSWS

MAGI2_2, Q86UL8, sequence (Q86UL8 410-522): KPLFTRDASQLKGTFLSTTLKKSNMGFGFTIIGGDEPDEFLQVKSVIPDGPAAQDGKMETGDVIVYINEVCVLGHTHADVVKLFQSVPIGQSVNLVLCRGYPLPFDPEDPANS
LDB3, O75112, sequence (O75112 1-94): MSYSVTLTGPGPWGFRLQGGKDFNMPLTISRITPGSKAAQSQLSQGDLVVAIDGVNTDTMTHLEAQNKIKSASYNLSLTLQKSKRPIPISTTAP
SCRIB_1, Q14160, sequence (Q14160 718-814): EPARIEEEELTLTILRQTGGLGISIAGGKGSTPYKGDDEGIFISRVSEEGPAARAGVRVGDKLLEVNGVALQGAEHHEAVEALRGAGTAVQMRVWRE
PDLIM1, O00151, sequence (O00151 1-87): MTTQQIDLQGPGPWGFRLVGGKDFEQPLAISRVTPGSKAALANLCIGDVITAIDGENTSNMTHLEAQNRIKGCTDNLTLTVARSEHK
FRMPD3, Q5JV73, sequence (Q5JV73 12-100): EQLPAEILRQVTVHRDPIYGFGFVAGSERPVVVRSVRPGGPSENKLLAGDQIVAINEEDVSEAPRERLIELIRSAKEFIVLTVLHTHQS
GRASP, Q7Z6J2, sequence (Q7Z6J2 96-193): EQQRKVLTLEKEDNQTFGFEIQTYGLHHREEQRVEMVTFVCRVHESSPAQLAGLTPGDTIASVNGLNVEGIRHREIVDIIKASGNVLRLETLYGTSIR
GRIP2_7, Q9C0E4, sequence (Q9C0E4 934-1023): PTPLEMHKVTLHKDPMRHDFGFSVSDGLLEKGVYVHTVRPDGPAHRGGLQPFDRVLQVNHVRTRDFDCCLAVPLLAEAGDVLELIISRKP
DLG1_2, Q12959, sequence (Q12959 314-412): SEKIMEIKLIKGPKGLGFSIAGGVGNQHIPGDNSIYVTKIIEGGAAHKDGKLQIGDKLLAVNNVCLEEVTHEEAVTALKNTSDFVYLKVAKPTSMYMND
PARD3_3, Q8TEW0, sequence (Q8TEW0 582-685): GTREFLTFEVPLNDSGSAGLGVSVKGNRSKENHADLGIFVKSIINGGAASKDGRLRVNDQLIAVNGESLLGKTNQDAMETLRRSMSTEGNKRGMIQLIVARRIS
DLG4_2, P78352, sequence (P78352 155-259): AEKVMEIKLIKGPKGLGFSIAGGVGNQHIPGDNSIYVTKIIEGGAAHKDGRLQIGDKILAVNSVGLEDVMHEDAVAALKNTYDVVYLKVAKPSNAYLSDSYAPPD

For the molecule ADRDHASDQL [CTBP1, Q13363], the pKd (usually the Kd on a negative log10 scale, so that one unit is a factor of ten) with APBA1_1, Q02410 was “below the threshold”; in the test with CARD11, Q9BXL7, “below the threshold”; with DFNB31_1, Q9P202, “below the threshold”; in the test with DFNB31_2, Q9P202 it was “below the threshold”; with DFNB31_3, Q9P202 it was 3.97; with DLG1_2, Q12959, “below the threshold”. In addition, the pKd result in the test with DLG4_2, P78352 is recorded as “below the threshold”; with DVL3, Q92997 it was “below the threshold”; in the test with FRMPD3, Q5JV73, “below the threshold”; in the test with GRASP, Q7Z6J2, “below the threshold”; with GRIP1_4, Q9Y3R0 it was “below the threshold”; with GRIP2_7, Q9C0E4 it was “below the threshold”. The negative logarithm of the Kd (pKd) result in the test with HTRA3, P83110 is “below the threshold”; with LDB3, O75112, “below the threshold”; with LIN7A, O14910 it was “below the threshold”; with LIN7B, Q9HAP6, “below the threshold”; in the test with MAGI2_2, Q86UL8 it was “below the threshold”; with PARD3_3, Q8TEW0, “below the threshold”. The pKd entry in the test with PDLIM1, O00151 is recorded as “below the threshold”; with PDZD7_3, Q9H5P4, “below the threshold”; with PTPN13_1, Q12923, “below the threshold”; with SCRIB_1, Q14160, “below the threshold”; with SNTA1, Q13424 it was “below the threshold”; in the test with TIAM2, Q8IVF5, “below the threshold”.
For the molecule QLAEIAESGL [ITK, Q08881], the pKd in the test with APBA1_1, Q02410 was 3.52; in the test with CARD11, Q9BXL7, “below the threshold”; with DFNB31_1, Q9P202, 3.97; in the test with DFNB31_2, Q9P202 it was “below the threshold”; with DFNB31_3, Q9P202, “below the threshold”; with DLG1_2, Q12959, “below the threshold”. Moreover, the negative-log Kd (pKd) is 3.79 in the test with DLG4_2, P78352; “below the threshold” in the test with DVL3, Q92997; “below the threshold” with FRMPD3, Q5JV73; 3.69 in the test with GRASP, Q7Z6J2; “below the threshold” with GRIP1_4, Q9Y3R0; 3.47 with GRIP2_7, Q9C0E4. In addition, the pKd result with HTRA3, P83110 is “below the threshold”; in the test with LDB3, O75112, “below the threshold”; in the test with LIN7A, O14910, 3.65; with LIN7B, Q9HAP6, “below the threshold”; in the test with MAGI2_2, Q86UL8, “below the threshold”; with PARD3_3, Q8TEW0 it was “below the threshold”. For the same molecule, the pKd with PDLIM1, O00151 is 3.56; with PDZD7_3, Q9H5P4 it was “below the threshold”; in the test with PTPN13_1, Q12923, “below the threshold”; with SCRIB_1, Q14160, 3.75; with SNTA1, Q13424 it was 3.63; in the test with TIAM2, Q8IVF5, “below the threshold”.
Take GSSSKEGTSV [RRBP1, Q9P2E9]: the negative-log Kd (pKd) entry is “below the threshold” with APBA1_1, Q02410; “below the threshold” with CARD11, Q9BXL7; 3.8 in the test with DFNB31_1, Q9P202; “below the threshold” with DFNB31_2, Q9P202; 3.96 with DFNB31_3, Q9P202; 4.45 with DLG1_2, Q12959. The pKd in the test with DLG4_2, P78352 was 4.27; with DVL3, Q92997, “below the threshold”; with FRMPD3, Q5JV73, “below the threshold”; with GRASP, Q7Z6J2, 3.49; with GRIP1_4, Q9Y3R0 it was “below the threshold”; with GRIP2_7, Q9C0E4, “below the threshold”. The pKd result was “below the threshold” in the test with HTRA3, P83110; “below the threshold” in the test with LDB3, O75112; “below the threshold” in the test with LIN7A, O14910; “below the threshold” with LIN7B, Q9HAP6; 4 in the test with MAGI2_2, Q86UL8; “below the threshold” with PARD3_3, Q8TEW0. Also, the pKd result in the test with PDLIM1, O00151 is “below the threshold”; with PDZD7_3, Q9H5P4, 4.28; with PTPN13_1, Q12923 it was “below the threshold”; in the test with SCRIB_1, Q14160, “below the threshold”; in the test with SNTA1, Q13424 it was 3.8; in the test with TIAM2, Q8IVF5 it was “below the threshold”.
With EGGKKRESEA [APPL1, Q9UKG1], the negative-log Kd (pKd) entry is “below the threshold” in the test with APBA1_1, Q02410; “below the threshold” in the test with CARD11, Q9BXL7; 3.63 with DFNB31_1, Q9P202; “below the threshold” with DFNB31_2, Q9P202; “below the threshold” in the test with DFNB31_3, Q9P202; “below the threshold” with DLG1_2, Q12959. The pKd result with DLG4_2, P78352 was “below the threshold”; with DVL3, Q92997 it was “below the threshold”; in the test with FRMPD3, Q5JV73, “below the threshold”; with GRASP, Q7Z6J2, “below the threshold”; in the test with GRIP1_4, Q9Y3R0, “below the threshold”; with GRIP2_7, Q9C0E4, “below the threshold”. For the same molecule, the pKd entry is “below the threshold” in the test with HTRA3, P83110; “below the threshold” with LDB3, O75112; “below the threshold” with LIN7A, O14910; 3.75 in the test with LIN7B, Q9HAP6; “below the threshold” with MAGI2_2, Q86UL8; “below the threshold” in the test with PARD3_3, Q8TEW0. Also, the negative-log Kd (pKd) result in the test with PDLIM1, O00151 was “below the threshold”; with PDZD7_3, Q9H5P4, 3.69; with PTPN13_1, Q12923 it was “below the threshold”; with SCRIB_1, Q14160, “below the threshold”; in the test with SNTA1, Q13424, “below the threshold”; with TIAM2, Q8IVF5, 4.02.
